This is an account of results in patent publication US20090196872A1 (KIRIN BEER, published 2009).

B1: human anti-M2 monoclonal antibody C40G1 (antibody, V domains shown)
VH: QLQLQESGPGLVKPSETLSLTCTVSGGSISSSFYYCGWIRQPPGKGLEWIGSIYYRGSTYYNPSLKSRVTISVDTSKNQFSLKLSSVTAADTAVYYCARRVTMVRGVKGDYFDYWGQGTLVTVSS
VL: DIQMTQSPSSLSASVGDRVTITCRASQGISSWLAWYQQKPEKVPKSLIYAASSLQSGVPSRFSGSGSGTDFTLTISSLQPEDFATYYCQQYNYYPLTFGGGTKVEIKR
B2: human anti-M2 monoclonal antibody no. Z3G1 (recombinant IgG1 type Z3, CHO; ATCC PTA-5967) (antibody, V domains shown)
VH: QVQLVQSGAEVKKPGASVKVSCKASGYTFTSYGISWVRQAPGQGLEWMGWISAYNGNTNYAQKLQGRVTMTTDTSTSTAYMELRSLRSDDTAVYYCARAAAGGYFQHWGQGTLVTVSS
VL: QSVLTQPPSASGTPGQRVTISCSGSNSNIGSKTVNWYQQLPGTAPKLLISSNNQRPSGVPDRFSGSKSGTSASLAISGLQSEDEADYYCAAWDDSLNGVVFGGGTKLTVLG
B3: human anti-M2 monoclonal antibody N547 (antibody, V domains shown)
VH: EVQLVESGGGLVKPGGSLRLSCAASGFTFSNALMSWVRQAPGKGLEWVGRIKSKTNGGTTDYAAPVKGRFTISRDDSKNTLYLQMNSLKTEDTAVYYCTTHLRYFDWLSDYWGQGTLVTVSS
VL: QSVLTQPPSMSAAPGQKVTISCSGSSSNIGNNYISWYQQLPGTAPKVLIYDNNKRPSGIPDRFSGSKSGTSATLGITGLQTGDEADYYCGSWDSSLSAGVFGTGTKVTVLG
B4: human anti-M2 monoclonal antibody L66 (antibody, V domains shown)
VH: EVQLVESGGGVVRPGGSLRLSCAASGFTFDDYGMSWVRQAPGKGLEWVSGINWNGGSTGYADSVKGRFTISRDNAKNSLYLQMNSLRAEDTALYYCARDRVTMVRGVIMDYYGMDVWGQGTTVTVSS
VL: QTVVTQEPSLTVSPRGTVTLTCSSSTGAVTSGYYPGWFQLKPGQAPMSLIYSARKKHSWTPARFSGSLLGGKAALTLSGVQPEDEAEYYCLLYYGGAYVFGTGTKVTVLG

In the test the target is T1, M2 protein expressed on A/PR/8/34 infected MDCK cells (influenza A virus A/PR/8/34, UniProt P06821 1-97).
T1 construct: whole, on cells
T1 sequence (P06821 whole entry): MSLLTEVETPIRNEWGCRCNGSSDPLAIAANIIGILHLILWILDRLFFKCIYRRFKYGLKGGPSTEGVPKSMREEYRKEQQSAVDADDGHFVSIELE
As to the kind of experiment: cell-based ELISA, half-saturating antibody concentration.
A word on the Kd: it is a measure of binding affinity in units of concentration. A lower Kd goes with higher affinity. On to B1, for which the Kd is 519 pM.
Molecule B2 displayed a Kd of 497 pM.
The figure for B3 is 1050 pM.
Turning to B4, the Kd worked out at 563 pM.
